Assay [1] addresses T1, Human GDF11 with Flag-tag on N-terminus (human, UniProt O95390 11-407).
T1 construct: Whole entry as named; Biotinylated in the ELISA; also called Flag-hGDF11; human latent GDF11
T1 sequence: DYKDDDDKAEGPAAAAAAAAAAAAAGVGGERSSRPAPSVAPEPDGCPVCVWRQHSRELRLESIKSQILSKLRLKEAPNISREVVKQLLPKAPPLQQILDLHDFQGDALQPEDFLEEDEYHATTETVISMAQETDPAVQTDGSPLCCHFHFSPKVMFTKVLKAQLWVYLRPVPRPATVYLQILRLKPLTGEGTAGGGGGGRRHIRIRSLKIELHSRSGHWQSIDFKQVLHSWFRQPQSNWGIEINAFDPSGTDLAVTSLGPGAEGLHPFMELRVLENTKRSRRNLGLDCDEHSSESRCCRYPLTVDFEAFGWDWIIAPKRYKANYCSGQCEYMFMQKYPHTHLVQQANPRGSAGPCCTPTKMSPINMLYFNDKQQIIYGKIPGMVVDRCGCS
Briefly: ELISA, biotinylated human latent GDF11 (20 nM) on streptavidin plate, anti-human IgG-HRP. As to the method: Uncoated ELISA plates (NUNC-IMMUNO plate MAXISORP™ surface, Nalge Nunc International) were coated with 20 μL of 50 nM streptavidin (GenScript) for 2 hour at room temperature. Plates were then washed with PBST three times and blocked with 50 μL 20% Blocking One (Nacalai Tesque) for overnight. On the next day, each well of the plates was incubated with biotinylated human latent myostatin at 2 nM/well/20 μL or biotinylated human latent GDF11 at 20 nM/well/20 μL for 2 hours. After washing, 20 μL of antibody sample was added to the wells and the plates were left for 1 hour. The plates were washed and 20 μL of anti-human IgG-horseradish peroxidase (HRP) (Abcam) diluted in HEPES-buffered saline was added, and the plates were left for another hour. The wells were washed again, and then 50 μL ABTS (KPL) was added to each well, and the plates were incubated for 1 hour.
(An ELISA detects its analyte on a solid surface through an enzyme-linked reagent.)

The target of assay [2] is T2, Cynomolgus monkey latent myostatin (cynomolgus monkey, UniProt Q95J86 25-266; Q95J86 267-375).
T2 construct: signal 1-24; also called Cyno latent myostatin
T2 sequence 1: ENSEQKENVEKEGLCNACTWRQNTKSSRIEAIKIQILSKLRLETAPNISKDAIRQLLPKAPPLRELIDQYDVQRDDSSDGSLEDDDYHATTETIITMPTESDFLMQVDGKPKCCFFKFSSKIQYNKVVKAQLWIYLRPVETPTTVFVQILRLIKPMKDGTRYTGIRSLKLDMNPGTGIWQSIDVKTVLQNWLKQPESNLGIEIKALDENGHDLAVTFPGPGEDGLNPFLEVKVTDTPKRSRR
T2 sequence 2: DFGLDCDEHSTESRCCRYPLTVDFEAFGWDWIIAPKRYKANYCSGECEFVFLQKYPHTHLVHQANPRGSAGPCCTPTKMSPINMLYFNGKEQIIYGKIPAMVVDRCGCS
The assay can be described thus: SPR (BIACORE T200), antibody captured by ProA/G, latent myostatin as analyte, 37 C, pH7.4, 1:1 fit. As to the method: (§1) The kinetic parameters of anti-latent myostatin antibodies against human, cynomolgus monkey (cyno), and mouse latent myostatin were assessed at 37° C. at pH7.4 using a BIACORE® T200 instrument (GE Healthcare). ProA/G (Pierce) was immobilized onto all flow cells of a CM4 chip using amine coupling kit (GE Healthcare). Anti-latent myostatin antibody and analytes were prepared in ACES pH7.4 (20 mM ACES, 150 mM NaCl, 1.2 mM CaCl₂), 0.05% TWEEN® 20, 0.005% NaN₃). […] Then human, cyno, or mouse latent myostatin was injected at 3.125 to 50 nM prepared by two-fold serial dilution, followed by dissociation. The sensor surface was regenerated with 25 mM NaOH. Kinetic parameters were determined by processing and fitting the data to a 1:1 binding model using BIACORE® T200 Evaluation software, version 2.0 (GE Healthcare).

The next assay deals with T3, Mouse latent myostatin (mouse, UniProt O08689 26-267; O08689 268-376).
T3 construct: signal 1-24
T3 sequence 1: T2 sequence 1 with N2G, Q5R, K6E, T19A, K25R, S26Y, K59R, V107A, E140K, N173S
T3 sequence 2: T2 sequence 2
The description is as above. As to the method: as §1

The target of assay [3] is T4, Human latent myostatin (human, UniProt O14793 25-266; O14793 267-375).
T4 construct: Biotinylated in the ELISAs; also called human myostatin latent form
T4 sequence 1: T2 sequence 1 with A52V
T4 sequence 2: T2 sequence 2
The assay is described as above. As to the method:
as §1

Assay [4] deals with T4, Human latent myostatin. Briefly: SPR (BIACORE) as in Example 7; antigen not given, values equal those for human latent myostatin in Table 3. As to the method: as §1
Humanized antibodies were transiently expressed in FS293-F cells, and HEK Blue Assay and BIACORE® analysis were carried out as described above.

Another assay addresses T5, mature myostatin (human (mature form 100% identical in …, UniProt O08689 268-376 (mouse entry))).
T5 construct: Disulfide-bonded homodimer purified from latent myostatin; Biotinylated in the ELISA; also called human myostatin mature form; active myostatin
T5 sequence: T2 sequence 2
The assay can be described thus: ELISA, biotinylated antigen (4 nM) on streptavidin plate, anti-human IgG-HRP. As to the method: Uncoated ELISA plates (NUNC-IMMUNO plate MAXISORP surface, Nalge Nunc International) were coated with 20 μL of 50 nM streptavidin (GenScript) for 1 hour at room temperature. Plates were then washed with PBST three times and blocked with 50 μL 20% Blocking One (Nacalai Tesque) overnight. On the next day, each well of each plate was incubated with biotinylated mature myostatin, human or mouse biotinylated latent myostatin, or biotinylated recombinant mouse myostatin propeptide-Fc chimera protein (R&D Systems) at 4 nM/well/20 μL for 2 hours. After washing, 20 μL of antibody sample was added to the wells and the plates were left for 1 hour. The plates were washed and 20 μL of anti-human IgG-horseradish peroxidase (HRP) (Abcam) diluted in HEPES-buffered saline was added, and the plates were left for another hour. The plates were then washed again, and then 50 μL ABTS (KPL) was added to each well, and the plates were incubated for 1 hour.

Numbering of substitutions follows the chain as printed.

B1: MS_MST1032Ha-G1m/MST1032La-k0MC (antibody, human IgG1, kappa, V domains shown)
VH: QSLEESGGRLVTPGGSLTVTCRVSGIDLSSYDISWVRQAPGKGLEWIGIISYAGSTYYASWAKGRFTISKTSTTVDLKMTSLTTEDTATYFCARGVPAYSTGGDLWGPGTLVTVSS
VL: AQVLTQTASSVSAAVGGTVTINCQSSQSVYDNNWLSWFQQKPGQPPKLLIYWASTLASGVPSRFKGSGSGTQFTLTISDLECDDAATYYCAGGYGGGLYAFGGGTKVEIKR
notes: Chimeric antibody: rabbit variable regions, human G1m / k0MC constant regions; also called MST1032-G1m
The Kd is the equilibrium constant for the complex coming apart. Broadly, the koff is the first-order rate constant of dissociation. Usually kon stands for the second-order rate constant of association. As for B1, the binding result (in assay [1]; in the assay with mature myostatin) was “no binding” each time. Further, the Kd in assay [2] worked out at 0.0717 nM; with Mouse latent myostatin, 0.0579 nM; with Human latent myostatin [3] it was 0.0766 nM; in the assay with Human latent myostatin [4] it was 0.0766 nM. Besides, the koff in assay [2] was 7.79e-05 s⁻¹; in the assay with Mouse latent myostatin it was 8.16e-05 s⁻¹; in the assay with Human latent myostatin [3], 8.65e-05 s⁻¹; with Human latent myostatin [4], 8.65e-05 s⁻¹. In addition, the kon amounted to 1.09e+06 M⁻¹ s⁻¹ in assay [2], 1.41e+06 M⁻¹ s⁻¹ with Mouse latent myostatin, 1.13e+06 M⁻¹ s⁻¹ with Human latent myostatin [3] and 1.13e+06 M⁻¹ s⁻¹ with Human latent myostatin [4].

The values above are taken from patent US20200317768A1 (published 2020).
